Experimental data taken from patent US9272016B2, “Methods to enhance RNAi oligonucleotide delivery to respiratory epithelial cells” (University of Iowa Research Foundation, priority 2012, dated 2016).

How the values were obtained:
Type in all cases: cell-based
human airway epithelia = test: Confocal imaging of DIG-labeled siRNA uptake in human airway epithelia; details: EGF 100 μg/ml for 15 min, imaged 2 h after transfection, vs untreated cells (data not shown)
Procedure: The primary human airway epithelia grown at air-liquid interface were transfected with the DIG-labeled siRNA at a concentration of 250 ng/ml after complexing with Transductin. The transfection mixture was left on the apical surface for 2 h. At the end of this period, the cells were fixed in 2% formaldehyde, permeabilized in 0.2% Triton-x-100 and blocked in 1% BSA for 1 h. The cells were then stained with mouse antibody to DIG (Roche Biochemicals) for 1 h followed by either Alexa 488 labeled goat anti-mouse secondary antibody for 1 h followed by Alexa 488 labeled rabbit […] antibody (Invitrogen) for 1 or in some cases with Alexa 564 goat anti-mouse secondary antibody for 1 h. The cells were finally stained with nuclear stain, ToPro 3 for 10 minutes. The filter, containing the cells, was removed from the culture insert by cutting the edges with razor blade and then mounted onto a slide by the use of Vectashield. The slide was visualized by confocal microscopy.

HPRT mRNA [1] = test: Pretreatment of well-differentiated human airway epithelia before HPRT siRNA transfection, qPCR
Procedure: (§1) For airway epithelia that were either well or poorly differentiated, transfection was done mostly according to the manufacturer's protocol. In all cases, the apical surface of epithelia was washed twice with PBS before adding the transfection mixture to the apical surface. The mixture was then left on the cells for 24 h for all transfection reagents. For PK1 cells, reverse transfection was performed in a 48-well plate by first adding the siRNA-RNAiMAX reagent mixture onto the plate and then adding the dispersed cells (40,000 cells) on top of the mixture and allowing the cells to adhere and establish growth for 24 h. […]
(§2) Total RNA was isolated using SV96 RNA isolation kit (Promega), according to manufacturer's protocol. […] One-fifteenth of the cDNA was then amplified and analyzed by Taqman assay in the 7900 Real Time PCR System (Applied Biosystems) using synthesized primer-probe pairs (IDT, Coralville, Iowa), reaction buffer and Immolase DNA polymerase (Bioline, Taunton, Mass.). […] Absolute quantification of an mRNA target sequence within an unknown sample was determined by reference to a standard curve. […]
(§3) Wortmannin was purchased from Sigma (St. Louis, Mo.) as a ready to use solution. […]

HPRT mRNA [2] = test: Pretreatment of well differentiated pig airway epithelia before HPRT siRNA transfection, qPCR; details: well differentiated PAE; KGF 50 ng/ml 24 h, EGTA 6 mM 30 m, LLnL 40 μM 24 hrs; then 250 nM HPRT siRNA with RNAiMAX or Transductin
Procedure: as §1, §2, §3

Molecule | uptake of the DIG signal (human airway epithelia) | decrease in HPRT mRNA levels (HPRT mRNA [1]; human airway cells, EGF 100 μg/ml for 15 min apically before siRNA-Transductin (250 nM), 3 donors) | siRNA uptake and knockdown (HPRT mRNA [1]; pretreatment of the mucosal surface with EGF (200 μg/ml), well differentiated cells, species not stated) | silencing of HPRT mRNA after pretreatment (HPRT mRNA [2])
EGF: human Epidermal Growth Factor (Sigma-Aldrich) (protein, UniProt P01133 23-1207, looked up, Pro-epidermal growth factor) Pro-epidermal growth factor: PQHWSCPEGTLAGNGNSTCVGPAPFLIFSHGNSIFRIDTEGTNYEQLVVDAGVSVIMDFHYNEKRIYWVDLERQLLQRVFLNGSRQERVCNIEKNVSGMAINWINEEVIWSNQQEGIITVTDMKGNNSHILLSALKYPANVAVDPVERFIFWSSEVAGSLYRADLDGVGVKALLETSEKITAVSLDVLDKRLFWIQYNREGSNSLICSCDYDGGSVHISKHPTQHNLFAMSLFGDRIFYSTWKMKTIWIANKHTGKDMVRINLHSSFVPLGELKVVHPLAQPKAEDDTWEPEQKLCKLRKGNCSSTVCGQDLQSHLCMCAEGYALSRDRKYCEDVNECAFWNHGCTLGCKNTPGSYYCTCPVGFVLLPDGKRCHQLVSCPRNVSECSHDCVLTSEGPLCFCPEGSVLERDGKTCSGCSSPDNGGCSQLCVPLSPVSWECDCFPGYDLQLDEKSCAASGPQPFLLFANSQDIRHMHFDGTDYGTLLSQQMGMVYALDHDPVENKIYFAHTALKWIERANMDGSQRERLIEEGVDVPEGLAVDWIGRRFYWTDRGKSLIGRSDLNGKRSKIITKENISQPRGIAVHPMAKRLFWTDTGINPRIESSSLQGLGRLVIASSDLIWPSGITIDFLTDKLYWCDAKQSVIEMANLDGSKRRRLTQNDVGHPFAVAVFEDYVWFSDWAMPSVMRVNKRTGKDRVRLQGSMLKPSSLVVVHPLAKPGADPCLYQNGGCEHICKKRLGTAWCSCREGFMKASDGKTCLALDGHQLLAGGEVDLKNQVTPLDILSKTRVSEDNITESQHMLVAEIMVSDQDDCAPVGCSMYARCISEGEDATCQCLKGFAGDGKLCSDIDECEMGVPVCPPASSKCINTEGGYVCRCSEGYQGDGIHCLDIDECQLGEHSCGENASCTNTEGGYTCMCAGRLSEPGLICPDSTPPPHLREDDHHYSVRNSDSECPLSHDGYCLHDGVCMYIEALDKYACNCVVGYIGERCQYRDLKWWELRHAGHGQQQKVIVVAVCVVVLVMLLLLSLWGAHYYRTQKLLSKNPKNPYEESSRDVRSRRPADTEDGMSSCPQPWFVVIKEHQDLKNGGQPVAGEDGQAADGSMQPTSWRQEPQLCGMGTEQGCWIPVSSDKGSCPQVMERSFHMPSYGTQTLEGGVEKPHSLLSANPLWQQRALDPPHQMELTQ | increased uptake | 15-20% | enhanced uptake and facilitated siRNA knockdown | –
KGF: Keratinocyte growth factor, a member of the fibroblast growth factor family (protein, UniProt P21781 32-194, looked up) Fibroblast growth factor 7: CNDMTPEQMATNVNCSSPERHTRSYDYMEGGDIRVRRLFCRTQWYLRIDKRGKVKGTQEMKNNYNIMEIRTVAVGIVAIKGVESEFYLAMNKEGKLYAKKECNEDCNFKELILENHYNTYASAKWTHNGGEMFVALNQKGIPVRGKKTKKEQKTAHFLPMAIT | – | – | – | did not reduce
